Positions count from the first letter of the chain named. Blank lines part the entries; values can stand above or below the binder they belong to.
What was measured:
[1] = molecular target: T1, full-length human SIRPβL (NP_001129316.1) on cells (human, UniProt Q5TFQ8 30-398); assay: flow cytometry, U937 SIRPα KO cells
T1 construct: on U937 SIRPα KO cells and Expi-CHO cells; also called βL WT; SIRPβ1v3
Outline: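 Binding read as median fluorescence intensity after AF647 anti-human IgG staining and fixation. Antibodies were titrated onto donkey-IgG-blocked U937^{SIRPα KO} transfectants bearing SIRPβ1 or SIRPβL for 60 minutes on ice.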

[2] = molecular target: T2, human SIRPγ extracellular domain + His-tag (NP_061026.2) (human, UniProt Q9P1W8 29-360); assay: SPR, Ab captured, ECD-His analyte
T2 construct: also called hSIRPγ; HuSIRPγ
Outline: (§1)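 Steps: chip deactivated with 1M ethanolamine HCl for 420 sec at 10 μl/min; anti-SIRPα antibody captured; two-fold serial dilutions of His-tagged SIRP extracellular domain injected 300 sec at 30 μl/min; dissociation monitored 600 sec. All in 1×HBS-EP+ running buffer.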

[3] = molecular target: T3, human SIRPβ1 extracellular domain + His-tag (NP_006056.2) (human, UniProt O00241 30-371); assay: SPR, Ab captured, ECD-His analyte
T3 construct: also called hSIRPβ1; HuSIRPβ1
Outline: as §1

[4] = molecular target: T4, cynomolgus SIRPβ1v3 extracellular domain + His-tag (XP_005568593) (cynomolgus monkey); assay: SPR, Ab captured, ECD-His analyte
T4 construct: also called Cyno SIRPβ1v3; cynoSIRPβ1v3
T4 chain: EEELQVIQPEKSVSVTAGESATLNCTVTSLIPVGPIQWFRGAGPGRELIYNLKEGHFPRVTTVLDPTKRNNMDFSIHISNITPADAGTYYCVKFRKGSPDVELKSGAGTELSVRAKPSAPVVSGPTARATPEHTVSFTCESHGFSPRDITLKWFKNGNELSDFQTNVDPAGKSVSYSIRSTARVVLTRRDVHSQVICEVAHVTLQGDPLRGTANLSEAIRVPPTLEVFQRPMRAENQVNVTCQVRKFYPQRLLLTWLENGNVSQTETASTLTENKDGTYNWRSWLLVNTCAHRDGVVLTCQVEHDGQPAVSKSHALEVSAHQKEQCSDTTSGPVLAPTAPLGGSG
Outline: as §1

[5] = molecular target: T5, cynomolgus SIRPα extracellular domain + His-tag (XP_015313155) (cynomolgus monkey); assay: SPR, Ab captured, ECD-His analyte
T5 construct: also called CySIRPα XP_015313155; cynoSIRPα
T5 chain: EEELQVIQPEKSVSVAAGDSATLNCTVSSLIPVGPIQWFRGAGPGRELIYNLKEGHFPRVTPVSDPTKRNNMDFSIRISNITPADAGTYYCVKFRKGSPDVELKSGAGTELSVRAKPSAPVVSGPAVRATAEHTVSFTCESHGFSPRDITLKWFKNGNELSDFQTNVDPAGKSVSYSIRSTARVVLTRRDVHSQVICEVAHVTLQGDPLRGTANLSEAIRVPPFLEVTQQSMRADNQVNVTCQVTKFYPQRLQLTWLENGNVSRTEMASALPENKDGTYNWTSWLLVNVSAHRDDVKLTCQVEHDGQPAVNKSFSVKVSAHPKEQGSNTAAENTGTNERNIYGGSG
Outline: as §1

[6] = molecular target: T6, cynomolgus SIRPα extracellular domain + His-tag (NP_001271679) (cynomolgus monkey); assay: SPR, Ab captured, ECD-His analyte
T6 construct: also called CySIRPα NP_001271679; cynoSIRPα
T6 chain: T5 chain with P62A, F163V, V185L
Outline: as §1

[7] = molecular target: T7, cynomolgus SIRPα extracellular domain + His-tag (EGM_02252) (cynomolgus monkey); assay: SPR, Ab captured, ECD-His analyte
T7 construct: also called CySIRPα EGM_02252; cynoSIRPα
T7 chain: T5 chain with D19E, V27A, S28T, A42V, N51H, L52Q, V227F, T245M
Outline: as §1

[8] = molecular target: T8, cynomolgus SIRPγ extracellular domain + His-tag (XP_005568591) (cynomolgus monkey, UniProt Q9P1W8 29-359 (human entry)); assay: SPR, Ab captured, ECD-His analyte
T8 construct: also called Cyno SIRPγ; cynoSIRPγ
T8 chain: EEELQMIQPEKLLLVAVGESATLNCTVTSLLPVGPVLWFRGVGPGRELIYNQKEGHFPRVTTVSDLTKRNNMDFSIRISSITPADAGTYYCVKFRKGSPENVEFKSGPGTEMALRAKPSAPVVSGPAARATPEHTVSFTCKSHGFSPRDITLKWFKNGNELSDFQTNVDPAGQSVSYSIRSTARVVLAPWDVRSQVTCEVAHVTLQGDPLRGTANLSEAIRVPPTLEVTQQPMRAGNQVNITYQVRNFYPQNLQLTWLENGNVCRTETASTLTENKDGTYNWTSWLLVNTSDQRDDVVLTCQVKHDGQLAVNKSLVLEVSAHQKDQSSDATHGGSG
Outline: as §1

T1 sequence (Q5TFQ8 30-398): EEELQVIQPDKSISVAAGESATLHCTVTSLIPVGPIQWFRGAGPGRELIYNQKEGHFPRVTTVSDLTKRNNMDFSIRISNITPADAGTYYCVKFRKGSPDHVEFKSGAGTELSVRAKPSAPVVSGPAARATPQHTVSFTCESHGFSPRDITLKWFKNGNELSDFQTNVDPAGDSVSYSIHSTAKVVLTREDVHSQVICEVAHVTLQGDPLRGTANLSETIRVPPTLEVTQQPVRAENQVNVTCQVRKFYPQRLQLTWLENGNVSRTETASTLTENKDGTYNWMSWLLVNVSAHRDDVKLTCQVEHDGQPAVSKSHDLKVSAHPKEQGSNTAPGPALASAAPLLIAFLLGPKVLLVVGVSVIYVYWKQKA
T2 sequence (Q9P1W8 29-360): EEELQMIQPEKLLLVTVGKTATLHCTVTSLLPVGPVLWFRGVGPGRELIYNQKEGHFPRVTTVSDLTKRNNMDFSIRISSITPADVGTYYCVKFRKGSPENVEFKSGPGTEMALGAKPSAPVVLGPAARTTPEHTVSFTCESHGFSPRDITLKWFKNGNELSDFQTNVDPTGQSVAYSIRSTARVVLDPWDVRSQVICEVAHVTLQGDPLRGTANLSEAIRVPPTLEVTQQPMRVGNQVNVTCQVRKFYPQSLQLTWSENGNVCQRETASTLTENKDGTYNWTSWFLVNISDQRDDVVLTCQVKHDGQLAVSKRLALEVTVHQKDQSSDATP
T3 sequence (O00241 other isoform, or with tags, fused parts or gaps): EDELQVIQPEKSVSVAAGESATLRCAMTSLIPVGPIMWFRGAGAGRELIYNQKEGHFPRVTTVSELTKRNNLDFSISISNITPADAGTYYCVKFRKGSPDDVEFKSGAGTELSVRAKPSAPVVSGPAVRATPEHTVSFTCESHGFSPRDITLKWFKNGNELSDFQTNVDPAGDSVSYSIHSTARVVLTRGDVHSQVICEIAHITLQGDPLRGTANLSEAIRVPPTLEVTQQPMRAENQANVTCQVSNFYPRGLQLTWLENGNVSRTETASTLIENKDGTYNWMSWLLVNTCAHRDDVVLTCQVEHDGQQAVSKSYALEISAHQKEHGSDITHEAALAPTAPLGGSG

binding result [1]: no binding
binding result [2]: no binding (tested: 1000 nM)
Kd [3]: 64.8 nM
Kd [4]: 246 nM
Kd [5]: 165 nM
Kd [6]: 336 nM
Kd [7]: 258 nM
binding result [8]: no binding (tested: 1000 nM)
B1: Antibody A (antibody, human IgG1, kappa, L234A L235A)
heavy: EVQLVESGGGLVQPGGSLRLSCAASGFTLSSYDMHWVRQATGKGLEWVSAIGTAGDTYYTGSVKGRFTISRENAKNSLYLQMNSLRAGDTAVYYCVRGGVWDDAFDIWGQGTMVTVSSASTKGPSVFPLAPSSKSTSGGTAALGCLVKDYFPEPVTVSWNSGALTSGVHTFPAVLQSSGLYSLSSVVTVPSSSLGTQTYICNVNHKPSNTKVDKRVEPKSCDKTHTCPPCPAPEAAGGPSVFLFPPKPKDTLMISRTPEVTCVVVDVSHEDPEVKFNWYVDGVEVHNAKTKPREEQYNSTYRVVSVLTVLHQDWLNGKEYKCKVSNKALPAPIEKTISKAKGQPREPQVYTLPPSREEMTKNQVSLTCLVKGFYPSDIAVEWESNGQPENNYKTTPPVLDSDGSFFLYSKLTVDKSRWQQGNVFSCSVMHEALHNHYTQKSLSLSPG
light: DIQMTQSPSSLSASVGDRVTITCRASQDINNYLAWFQQKPGKAPKSLIYTASSLHSGVPSKFSGSGSGTDFTLTISSLQPEDFATYYCQQYVSYPYTFGQGTKLEIKRTVAAPSVFIFPPSDEQLKSGTASVVCLLNNFYPREAKVQWKVDNALQSGNSQESVTEQDSKDSTYSLSSTLTLSKADYEKHKVYACEVTHQGLSSPVTKSFNRGEC

binding result [1]: no binding
binding result [2]: no binding (tested: 1000 nM)
Kd [3]: 69 nM
Kd [4]: 271 nM
Kd [5]: 180 nM
Kd [6]: 378 nM
Kd [7]: 249 nM
binding result [8]: no binding (tested: 1000 nM)
B2: Antibody A10 (antibody, human IgG1, kappa, L234A L235A)
heavy: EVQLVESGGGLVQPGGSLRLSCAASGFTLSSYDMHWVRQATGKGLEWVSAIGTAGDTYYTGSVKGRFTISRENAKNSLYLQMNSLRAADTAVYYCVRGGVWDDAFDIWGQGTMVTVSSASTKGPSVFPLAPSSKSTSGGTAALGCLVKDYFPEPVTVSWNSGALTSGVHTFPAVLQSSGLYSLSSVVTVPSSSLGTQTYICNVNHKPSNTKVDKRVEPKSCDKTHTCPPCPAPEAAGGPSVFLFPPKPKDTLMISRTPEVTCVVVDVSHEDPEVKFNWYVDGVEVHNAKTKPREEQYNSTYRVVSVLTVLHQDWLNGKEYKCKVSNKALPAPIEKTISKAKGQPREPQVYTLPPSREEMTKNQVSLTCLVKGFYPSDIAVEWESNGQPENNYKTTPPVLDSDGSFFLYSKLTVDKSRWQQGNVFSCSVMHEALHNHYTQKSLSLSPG
light: B1 light

Source: patent US20230012273A1 (Boehringer Ingelheim, published 2023)
